According to patent publication US20110301327A1 (MANNKIND, published 2011):
Where two headings read alike, the source gives them in different places. Where no end group is shown, it is not given here. [ ]: non-standard residue; d: D form. Orn = NCCC[C@H](N)C(=O)O; Nva = CCC[C@H](N)C(=O)O

Legend:
HLA-A*0201 [1] = target: T1, HLA-A*0201 (human); assay: T2 cell binding, flow cytometry; half-maximal binding
T1 construct: Empty class I on TAP-deficient T2 cells, stabilised by the added peptide; also called HLA-A2; MHC class I (A2 allele) on T2 cells

HLA-A*0201 [2] = target: T1, HLA-A*0201; assay: T2 cell binding, flow cytometry
[3] = target: T2, HLA-A*0201 class I monomer (ITOPIA Epitope Discovery System plates); assay: iTopia affinity assay (ED50)
T2 construct: Bought kit; for the PSMA series only HLA-A2 is implied; also called MHC monomer; HLA-A2

[4] = target: T2, HLA-A*0201 class I monomer (ITOPIA …); assay: iTopia affinity assay
[5] = target: T2, HLA-A*0201 class I monomer (ITOPIA …); assay: iTopia binding assay
HLA-A*0201 [6] = target: T1, HLA-A*0201; assay: T2 cell binding, flow cytometry; remark: listed apart in the source

Binder FVSEKIFYM [SSX2 41-49 (K41F, A42V, V49M)] has an EC50 (HLA-A*0201 [1]) of 17.8 µM.

Binder KLSEKIFYI [SSX2 41-49(A42L, V49I)] has an EC50 (HLA-A*0201 [1]) of 5.68 µM.

KVSEKIFYI [SSX2 41-49(A42V, V49I)] was tested, and the EC50 (HLA-A*0201 [1]) was 13.9 µM.

Binder KASEKIFYI [SSX2 41-49(V49I)] has an EC50 (HLA-A*0201 [1]) of 14 µM.

KLSEKIFYVL [SSX-2 41-50(A42L, Y50L)]: binds (HLA-A*0201 [2]).

KLSEKIFYVV [SSX-2 41-50(A42L, Y50V)]: binds (HLA-A*0201 [2]).

KLSEKIFYVX (Nle, norleucine, at position 10 (50)) [SSX-2 41-50(A42L, Y50(Nle))]: binds (HLA-A*0201 [2]).

KLSEKIFYVX (Nva, norvaline, at position 10 (50)) [SSX-2 41-50(A42L, Y50(Nva))]: binds (HLA-A*0201 [2]).

FLLMWITQC (also called Substitution of S157 with F) [NY-ESO-1 157-165 S157F]: binds (HLA-A*0201 [2]).

KLLMWITQC (also called Substitution of S157 with K) [NY-ESO-1 157-165 S157K]: binds (HLA-A*0201 [2]).

For S[Nva]LQHLIGL [PRAME425-433 analog, Nva at P2], the “fold reduction of affinity against the native peptide” value [3] was ~3 fold.

SLLQHLIGA [PRAME425-433 analog, Ala at PO]: binds [4].

KLLQHLIGL (also called Lys P1 analog) [PRAME425-433 analog, Lys at P1]: binds [5].

[Orn]LLQHLIGL [PRAME425-433 analog, Orn at P1]: binds [5].

XLLQHLIGL (Hse (homoserine) at P1) [PRAME425-433 analog, Hse at P1]: binds [5].

KASEKIFYX (C-terminal amide) [SSX2 41-49-NH2]: no binding (HLA-A*0201 [6]).
